Assays:
[1] = target: Saccharomyces cerevisiae ADAT3 (S. cerevisiae)
[2] = target: ScADAT2 (TAD2);ScADAT3 R75A/K76A (Saccharomyces cerevisiae;Saccharomyces …, UniProt P47058;Q9URQ3 1-250;1-322, |R75A;K76A); assay: EMSA; 2 uM tRNA, varied enzyme:tRNA molar ratios; EMSA: 20 mM Tris-HCl pH 8.0, 1 mM DTT, 2 uM tRNA, on ice 60 min; 6% native PAGE, 40 mM Tris-HCl pH 9.0 running buffer; details: protein: recombinant;recombinant; tags: none (untagged in co-expression);N-terminal His6, cleaved (PreScission); copies: 1;1; label: none; tRNA cloverleaf
[3] = target: ScADAT2 (TAD2);ScADAT3 (TAD3) WT (Saccharomyces cerevisiae;Saccharomyces …, UniProt P47058;Q9URQ3 1-250;1-322, |); assay: as above; details: protein: recombinant;recombinant; tags: none (untagged in co-expression);N-terminal His6, cleaved (PreScission); copies: 1;1; label: none; tRNA cloverleaf
[4] = target: ScADAT2 (TAD2);ScADAT3 Del30-148 (Saccharomyces cerevisiae;Saccharomyces …, UniProt P47058;Q9URQ3 1-250;1-322, |del30-148); assay: as above; details: protein: recombinant;recombinant; tags: none (untagged in co-expression);N-terminal His6, cleaved (PreScission); copies: 1;1; label: none; tRNA cloverleaf
[5] = target: ScADAT2 (TAD2);ScADAT3 K50A (Saccharomyces cerevisiae;Saccharomyces …, UniProt P47058;Q9URQ3 1-250;1-322, |K50A); assay: as above; details: protein: recombinant;recombinant; tags: none (untagged in co-expression);N-terminal His6, cleaved (PreScission); copies: 1;1; label: none; tRNA cloverleaf
[6] = target: ScADAT2 (TAD2);ScADAT3 K72A/R73A (Saccharomyces cerevisiae;Saccharomyces …, UniProt P47058;Q9URQ3 1-250;1-322, |K72A;R73A); assay: as above; details: protein: recombinant;recombinant; tags: none (untagged in co-expression);N-terminal His6, cleaved (PreScission); copies: 1;1; label: none; tRNA cloverleaf
Sequence of ScADAT2 (TAD2);ScADAT3 K72A/R73A (P47058 whole entry, chain 1 of 2): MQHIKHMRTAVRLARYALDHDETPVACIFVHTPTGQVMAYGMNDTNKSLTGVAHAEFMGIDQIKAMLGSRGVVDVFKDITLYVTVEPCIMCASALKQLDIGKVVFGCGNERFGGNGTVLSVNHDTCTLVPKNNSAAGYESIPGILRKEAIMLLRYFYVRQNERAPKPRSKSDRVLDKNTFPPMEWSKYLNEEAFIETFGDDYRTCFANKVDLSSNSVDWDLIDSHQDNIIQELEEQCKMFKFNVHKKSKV
Sequence of ScADAT2 (TAD2);ScADAT3 K72A/R73A (Q9URQ3 whole entry K72A/R73A, chain 2 of 2): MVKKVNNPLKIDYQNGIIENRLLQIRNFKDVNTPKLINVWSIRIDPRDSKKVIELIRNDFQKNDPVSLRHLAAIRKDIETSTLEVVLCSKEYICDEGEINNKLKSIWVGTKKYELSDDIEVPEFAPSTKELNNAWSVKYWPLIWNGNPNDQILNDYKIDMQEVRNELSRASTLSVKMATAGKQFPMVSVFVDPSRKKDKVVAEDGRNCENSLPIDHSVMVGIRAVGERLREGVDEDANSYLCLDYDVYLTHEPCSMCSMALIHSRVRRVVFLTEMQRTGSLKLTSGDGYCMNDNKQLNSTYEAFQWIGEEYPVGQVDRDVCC

Sequence of ScADAT2 (TAD2);ScADAT3 (TAD3) WT (P47058 whole entry, chain 1 of 2): as the sequence (P47058 whole entry, chain 1 of 2) above
Sequence of ScADAT2 (TAD2);ScADAT3 (TAD3) WT (Q9URQ3 whole entry, chain 2 of 2): as the sequence (Q9URQ3 whole entry K72A/R73A, chain 2 of 2) above, with A72K, A73R counted along it
Sequence of ScADAT2 (TAD2);ScADAT3 K50A (P47058 whole entry, chain 1 of 2): as the sequence (P47058 whole entry, chain 1 of 2) above
Sequence of ScADAT2 (TAD2);ScADAT3 K50A (Q9URQ3 whole entry K50A, chain 2 of 2): as the sequence (Q9URQ3 whole entry K72A/R73A, chain 2 of 2) above, with K50A, A72K, A73R counted along it
Sequence of ScADAT2 (TAD2);ScADAT3 R75A/K76A (P47058 whole entry, chain 1 of 2): as the sequence (P47058 whole entry, chain 1 of 2) above
Sequence of ScADAT2 (TAD2);ScADAT3 R75A/K76A (Q9URQ3 whole entry R75A/K76A, chain 2 of 2): as the sequence (Q9URQ3 whole entry K72A/R73A, chain 2 of 2) above, with A72K, A73R, R75A, K76A counted along it
Sequence of ScADAT2 (TAD2);ScADAT3 Del30-148 (P47058 whole entry, stated change not applied, chain 1 of 2): as the sequence (P47058 whole entry, chain 1 of 2) above
Sequence of ScADAT2 (TAD2);ScADAT3 Del30-148 (Q9URQ3 other isoform, or with tags, fused parts or gaps |del30-148, chain 2 of 2): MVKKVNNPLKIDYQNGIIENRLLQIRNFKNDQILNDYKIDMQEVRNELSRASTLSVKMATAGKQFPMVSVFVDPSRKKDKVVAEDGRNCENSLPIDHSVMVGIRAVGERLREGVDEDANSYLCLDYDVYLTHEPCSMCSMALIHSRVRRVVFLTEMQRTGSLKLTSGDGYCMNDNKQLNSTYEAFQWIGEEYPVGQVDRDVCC

In the case of “ScADAT2-D124A/T125A/C126A/T127A (enzyme)”, the in vitro deamination of tRNA^Ala by the heterodimer (30 nM enzyme), coupled to cleavage by EcEndoV, against WT [1] is reported as over 50 % activity.

ScADAT2/L119A/V121A (enzyme) was tested, and the in vitro deamination of tRNA^Ala by the heterodimer (30 nM enzyme), coupled to cleavage by EcEndoV, against WT [1] was over 50 % activity.

With ScADAT2/Q97A (enzyme) the in vitro deamination of tRNA^Ala by the heterodimer (30 nM enzyme), coupled to cleavage by EcEndoV, against WT [1] was over 50 % activity.

In the case of ScADAT2/F57A (enzyme), the in vitro deamination of tRNA^Ala by the heterodimer (30 nM enzyme), coupled to cleavage by EcEndoV, against WT [1] is reported as over 50 % activity.

ScADAT2/V52A (enzyme) was tested, and the in vitro deamination of tRNA^Ala by the heterodimer (30 nM enzyme), coupled to cleavage by EcEndoV, against WT [1] was over 50 % activity.

ScADAT2/S93A (enzyme) was tested, and the in vitro deamination of tRNA^Ala by the heterodimer (30 nM enzyme), coupled to cleavage by EcEndoV, against WT [1] was over 50 % activity.

Molecule ScADAT2/L49A (enzyme) has an in vitro deamination of tRNA^Ala by the heterodimer (30 nM enzyme), coupled to cleavage by EcEndoV, against WT [1] of over 50 % activity.

ScADAT2/S69A (enzyme) gave an in vitro deamination of tRNA^Ala by the heterodimer (30 nM enzyme), coupled to cleavage by EcEndoV, against WT [1] of over 50 % activity.

ScADAT2/I89A (enzyme) gave an in vitro deamination of tRNA^Ala by the heterodimer (30 nM enzyme), coupled to cleavage by EcEndoV, against WT [1] of over 50 % activity.

B1: tRNAAla (structured_RNA)
RNA: GGGCGUGUGGCGUAGUCGGUAGCGCGCUCCCUUAGCAUGGGAGAGGUCUCCGGUUCGAUUCCGGACUCGUCCACCA
modifications: none (in vitro transcript)
B1: no binding [2]; binds [3]; no binding [4]. B1: no binding [5]; no binding [6].

From PMC7713142, “Crystal structure of the yeast heterodimeric ADAT2/3 deaminase”
